From publication PMC12294753, “Development of INER-PP-F11N as the Peptide-Radionuclide Conjugate Drug Against CCK2 Receptor-Overexpressing Tumors” (International Journal of Molecular Sciences, 2025)
“Also recorded” adds a separate entry of the source. Like-named read-outs stand apart in the source and are kept apart here. Where a SMILES comes first, the peptide text is derived from it. [ ]: non-standard residue; d: D form. The star is where a group is joined. DOTA = O=C(O)CN1CCN(CC(=O)O)CCN(CC(=O)*)CCN(CC(=O)O)CC1; Butanoyl(4-(4-MePh)) = Cc1ccc(CCCC(=O)*)cc1; Nle = CCCC[C@H](N)C(=O)O; Ahx = NCCCCCC(=O)O

Assays:
[1] = Metabolic stability analysis (radio-HPLC) in PBS at 4 °C or FBS at 37 °C; type: in vitro ADME
Protocol: DOTA-PP-F11N, DOTA-INER-PP-F11N-1, and DOTA-INER-PP-F11N-2 were labeled with In-111 and Lu-177 for further experiments. The detection of free In-111 after ITLC extension was defined as 0% radiolabeling efficiency. […]
To measure the labeling efficiency, ITLC was performed on glass microfiber chromatography paper impregnated with a silica gel (Agilent Technologies, Santa Clara, CA, USA) as described previously. Briefly, the ITLC sheets were developed with 10% methanol as solvent (Rf free Lu-177 = 0, Rf Lu-177-labeled compounds = 1) and measured using a radioactive scanner (AR-2000 radio-TLC […] Imaging Scanner, Bioscan, France). The sample was mixed with acetonitrile at a 1:1 (v/v) ratio, followed by centrifugation at 16,000× g for 5 min. The resulting supernatant was subsequently analyzed using HPLC with UV (220[…]) and radio detector with a Zorbax SB-C18 column (Agilent Technologies, Santa Clara, CA, USA). The flow rate was 0.8 mL/min, with the gradient mobile phase going from 90% A […] buffer (0.1% TFA in water) and 10% B buffer (0.1% TFA in acetonitrile) to 90% B buffer […] within 20 min.

A431-CCK2R (−) cells = experiment: In vitro binding and internalization assay, A431-CCK2R (−) cells; type: cell-based; details: 37 °C
Protocol: (§1) In vitro binding and internalization activities were measured using a gamma counter (WIZARD 1480, Perkin-Elmer). Briefly, A431-CCK2R (+) and A431-CCK2R (−) cells were seeded on 24-well plates (1 × 10^5 cells/well, Corning, NY, USA) for 12 h. The plated cells were treated with 30 ± 10 GBq/µmol of [^177Lu]Lu-DOTA-PP-F11N, [^177Lu]Lu-DOTA-INER-PP-F11N-1, or [^177Lu]Lu-DOTA-INER-PP-F11N-2 (1 mL/well) and then incubated at 37 °C for either 1 or 4 h. After incubation, the medium was collected, and the cells were then washed with ice-cold buffer. The medium and washed PBS were collected in tube 0. The washed cells were treated with glycine–HCl buffer (0.1 M, pH 3.0) and incubated for 10 min. After incubation, cells were washed again with glycine–HCl buffer. Both glycine-HCl buffer solutions were collected in tube 1. The washed cells were treated with 1 N NaOH (1 mL/well) and incubated for 10 min for cell lysis. After incubation, the cells were washed once with 1 N NaOH. The cell lysate solution was collected in tube 2. All tubes were analyzed using a gamma counter to detect radioactivity. Data were obtained from at least three independent experiments. The respective formulae for in vitro surface binding activity and internalization were as follows:Surface binding = tube 1/(tube 0 + tube 1 + tube 2) × 100%.Internalization = tube 2/(tube 0 + tube 1 + tube 2) × 100%.

A431-CCK2R (+) cells = experiment: In vitro binding and internalization assay, A431-CCK2R (+) cells; type: cell-based; parameters: surface binding activity / internalization activity: concentration or dose not given beside the values; details: for internalization activity / surface binding activity: A431-CCK2R (+) cells, 37 °C
Protocol: as §1

[2] = tested on: A431-CCK2R (−)/A431-CCK2R (+) tumor-bearing mice; experiment: NanoSPECT/CT imaging of tumor-bearing mice; type: in vivo; details: for radiotracer accumulation in the tumor region on NanoSPECT/CT: tail-vein injection, Lu-177-labeled
Protocol: (§2) To generate A431-CCK2R (+) and A431-CCK2R (−) tumor-bearing mice models, mice (3 per group) were inoculated subcutaneously with 6 × 10^6 cells, which were injected into the inner right back leg for A431-CCK2R (+) tumors and the left back leg for A431-CCK2R (−) tumors, respectively. These xenografts were monitored until the tumor volume reached approximately 200–500 mm^3 [57]. The mice were then randomized to subgroups for further experiments. The formula for calculating tumor volume (V) is V = 4/3πr^3.
The NanoSPECT/CT® plus scanner system (Mediso Medical Imaging Systems; Budapest, Hungary) was utilized to detect in vivo tumors in the in vivo animal models. Both A431-CCK2R (+) and A431-CCK2R (−) cancer cells were inoculated subcutaneously into the inner right leg and left back leg of the mice. Radiopharmaceuticals—[^111In]In-DOTA-PP-F11N, [^111In]In-DOTA-INER-PP-F11N-1, and [^111In]In-DOTA-INER-PP-F11N-2 (1 mCi)—were injected once the mean tumor volume reached approximately 200–500 mm^3. Inhalant (1–2% isoflurane) was used to anesthetize the mice during imaging acquisition. X-ray CT images and SPECT images were taken 4, 24, and 48 h after tail-vein injection. NanoSPECT imaging was acquired using nine multi-pinhole gamma detectors with high-resolution collimators. The energy window was set at 171 and 245 KeV ± 10%, the image size was set at 256 × 256, and the field of view was set at 60 mm × 100 mm.
For Lu-177, only 208 keV photons were used for imaging, with an energy window set at 208 keV ± 10%. Although Lu-177 also emits lower abundance photons at 113 keV, the 208 keV photon provides better image quality due to reduced scatter and higher energy resolution. Therefore, the gamma camera energy windows were specifically tailored to the photon emission profiles of each radionuclide to ensure optimal detection efficiency and image accuracy.
(§3) We investigated therapeutic responses in mice receiving [^177Lu]Lu-DOTA-PP-F11N, [^177Lu]Lu-DOTA-INER-PP-F11N-1, or [^177Lu]Lu-DOTA-INER-PP-F11N-2. A431-CCK2R (+) and A431-CCK2R (−) cells were implanted subcutaneously into the right and left inner hind legs of NOD/SCID mice. Once the tumors reached a volume of 200–500 mm^3, the mice were intravenously injected with either 200 μCi of [^177Lu]Lu-DOTA-PP-F11N, [^177Lu]Lu-DOTA-INER-PP-F11N-1, [^177Lu]Lu-DOTA-INER-PP-F11N-2, or PBS (as a non-radioactive control). The NanoSPECT/CT® plus scanner system (Mediso Medical Imaging Systems; Budapest, Hungary) was utilized to detect and image tumors in the mouse models. Tumor volumes were measured twice a week for 4 weeks.

[3] = Biodistribution study in tumor-bearing mice; type: in vivo; details: mouse, intravenous, total radioactivity, 72 h after tail-vein injection, tumor-bearing mice
Protocol: as §2
Mice were sacrificed via CO2 asphyxiation 72 h after intravenous injection of 50–100 μCi (50–100 μL) of radiolabeled DOTA-PP-F11N, DOTA-INER-PP-F11N-1, or DOTA-INER-PP-F11N-2 [58]. Tumors and organs of interest were collected for further pathological examinations. The PerkinElmer 2480 Automatic Gamma Counter (PerkinElmer, Waltham, MA, USA) was used to measure radioactivity; the data are presented as the percentage injected dose per gram of tissue (%ID/g).

A431-CCK2R (+) tumors = experiment: Therapeutic responses to Lu-177-labeled CCK2R analogs in CCK2R-expressing cancer-bearing mice; type: in vivo; details: 200 μCi intravenously
Protocol: as §2, §3

[4] = Histopathological examinations (H&E) of mice after radiolabeled drug administration; type: in vivo; details: light microscopy
Text: To investigate the pathological alterations in tumor-bearing mice receiving radiopharmaceuticals, […] tissues, including tumors, heart, liver, and kidneys, were collected. The specimens were first fixed using 10% buffered neutral formalin and then embedded in paraffin. Sections of 3–5 μm thickness were stained with H&E and examined using light microscopy (40 × and 20 ×).

[5] = labeled with Lu-177, each time point (Figure 2C, 4 °C PBS)
[6] = Lu-177-labeled, 37 °C FBS, 144 h
[7] = 4 °C PBS, 144 h after Lu-177 labeling
[8] = kidneys, read-out: radiotracer accumulation in the kidneys
[9] = tumor (A431-CCK2R (+)), read-out: tumor uptake of radiopharmaceuticals

DOTA-Lys(-4-TBA)-AHA-(Glu)6-Ala-Tyr-Gly-Trp-Nle-Asp-Phe-NH2 [DOTA-INER-PP-F11N-2]
metabolic stability [1, 5]: more than 90%

DOTA-Lys(-4-TBA)-6-AMBA-(Glu)6-Ala-Tyr-Gly-Trp-Nle-Asp-Phe-NH2 [DOTA-INER-PP-F11N-1]
metabolic stability [1, 6]: 99%
metabolic stability [1, 5]: more than 90%

CCCC[C@H](NC(=O)[C@H](Cc1c[nH]c2ccccc12)NC(=O)CNC(=O)[C@H](Cc1ccc(O)cc1)NC(=O)[C@H](C)NC(=O)[C@@H](CCC(=O)O)NC(=O)[C@@H](CCC(=O)O)NC(=O)[C@@H](CCC(=O)O)NC(=O)[C@@H](CCC(=O)O)NC(=O)[C@@H](CCC(=O)O)NC(=O)[C@@H](CCC(=O)O)NC(=O)CN1CCN(CC(=O)O)CCN(CC(=O)O)CCN(CC(=O)O)CC1)C(=O)N[C@@H](CC(=O)O)C(=O)N[C@@H](Cc1ccccc1)C(N)=O [[^177Lu]Lu-DOTA-PP-F11N, metal not drawn, reference compound]
metabolic stability [1, 7]: more than 95%
metabolic stability [1, 6]: below 60%
internalization activity (A431-CCK2R (−) cells; 1 h): 1.26 ± 0.06 %IA/106 cells
surface binding activity (A431-CCK2R (−) cells; 1 h): 3.42 ± 0.21 %IA/106 cells
internalization activity (A431-CCK2R (−) cells; 4 h): 1.29 ± 0.01 %IA/106 cells
surface binding activity (A431-CCK2R (−) cells; 4 h): 3.24 ± 0.15 %IA/106 cells
internalization activity (A431-CCK2R (+) cells; 1 h): 37.37 ± 3.04%
surface binding activity (A431-CCK2R (+) cells; 1 h): 6.60 ± 0.17%
internalization activity (A431-CCK2R (+) cells; 4 h): 71.44 ± 3.52%
surface binding activity (A431-CCK2R (+) cells; 4 h): 11.51 ± 3.16%
washout of radiotracer accumulation in both kidneys, time after injection ([2]; NanoSPECT/CT, accumulation from one hour): more than 48 h
radiotracer accumulation in the tumor region on NanoSPECT/CT [2]: relatively low
tissue uptake at 72 h [3, 8]: 14.2 ± 5.9 %ID/g
tissue uptake at 72 h [3, 9]: 0.33 ± 0.02 %ID/g
tumor volume at D23 (A431-CCK2R (+) tumors): 1884.72 ± 333.13 mm^3
histopathological changes in the kidneys [4]: renal tubular necrosis (arrow 1), moderate renal tubular casts (arrow 2), slight renal tubular degeneration (arrow 3), and neutrophil infiltration (arrow 4); also recorded: moderate/severe renal tubular necrosis (arrow 1), moderate renal tubular casts (arrow 2), slight renal tubular degeneration (arrow 3), and slight infiltration of neutrophils (arrow 4)
histopathological changes in the liver and heart [4]: no significant histopathological changes
histopathological changes in the kidneys ([4]; listed as PP-F11N): renal tubular necrosis and inflammation

DOTA-(Glu)6-Ala-Tyr-Gly-Trp-Nle-Asp-Phe-NH2 [DOTA-PP-F11N, reference compound]
metabolic stability ([1]; In-111-labeled, 37 °C FBS (Figure 2B)): less metabolic stability
metabolic stability ([1]; Lu-177-labeled, 37 °C FBS, 4 h): 94.6 ± 0.1%
metabolic stability [1, 6]: 56.4 ± 0.1%
metabolic stability [1, 5]: more than 90%

CCCC[C@H](NC(=O)[C@H](Cc1c[nH]c2ccccc12)NC(=O)CNC(=O)[C@H](Cc1ccc(O)cc1)NC(=O)[C@H](C)NC(=O)[C@@H](CCC(=O)O)NC(=O)[C@@H](CCC(=O)O)NC(=O)[C@@H](CCC(=O)O)NC(=O)[C@@H](CCC(=O)O)NC(=O)[C@@H](CCC(=O)O)NC(=O)[C@@H](CCC(=O)O)NC(=O)CCCCCNC(=O)[C@H](CCCCNC(=O)CCCc1ccc(C)cc1)NC(=O)CN1CCN(CC(=O)O)CCN(CC(=O)O)CCN(CC(=O)O)CC1)C(=O)N[C@@H](CC(=O)O)C(=O)N[C@@H](Cc1ccccc1)C(N)=O [[^177Lu]Lu-DOTA-INER-PP-F11N-2, metal not drawn] ({DOTA}-K(Butanoyl(4-(4-MePh)))[Ahx][dE][dE][dE][dE][dE][dE]AYGW[Nle]DF-NH2)
metabolic stability [1, 7]: more than 95%
metabolic stability [1, 6]: > 99%
internalization activity (A431-CCK2R (−) cells; 1 h): 0.25 ± 0.04 %IA/106 cells
surface binding activity (A431-CCK2R (−) cells; 1 h): 0.59 ± 0.01 %IA/106 cells
internalization activity (A431-CCK2R (−) cells; 4 h): 0.15 ± 0.18 %IA/106 cells
internalization activity (A431-CCK2R (+) cells; 1 h): 41.58 ± 3.46%
surface binding activity (A431-CCK2R (+) cells; 1 h): 5.51 ± 0.45%
internalization activity (A431-CCK2R (+) cells; 4 h): 81.26 ± 7.27%
surface binding activity (A431-CCK2R (+) cells; 4 h): 8.11 ± 2.65%
enhancement of internalization activity compared with PP-F11N (A431-CCK2R (+) cells; A431 CCK2R (+) cells, compared with conventional [^177Lu]Lu-DOTA-PP-F11N): 13.7%
radioactivity within the kidneys on NanoSPECT/CT ([2]; compared with Lu-177-labeled PP-F11N over the same period): significantly lower
radiotracer accumulation in the tumor region on NanoSPECT/CT [2]: imaging of the tumor was limited
tissue uptake at 72 h [3, 8]: 7.4 ± 1.5 %ID/g
tissue uptake at 72 h [3, 9]: 0.88 ± 0.25 %ID/g
tumor volume at D23 (A431-CCK2R (+) tumors): 1162.60 ± 275.92 mm^3
histopathological changes in the kidneys [4]: no significant histopathological changes
histopathological changes in the liver and heart [4]: no significant histopathological changes

O=C([O-])CN1CCN(CC(=O)[O-])CCN(CC(=O)[O-])CCN(CC(=O)[O-])CC1.[177Lu+3] [[^177Lu]Lu-DOTA, reference compound]
clearance of radiotracer accumulation in the urinary bladder, time after injection ([2]; NanoSPECT/CT): ≤ 24 h
tumor volume at D23 (A431-CCK2R (+) tumors): 3237.10 ± 846.25 mm^3
